Earlier results on one substance are cited in PMC3971948.

For the series, the target named is Asp85 (UniProt position 98, WAQYADWLFTT). The note with it: Initial unphotolysed BR state of the R82Q mutant.

With “Bacteriorhodopsin R82Q (Halobacterium salinarum; R82Q)”, the pKa result is recorded as “up to ∼7”.
